Test [1] deals with T1, human TNFα (recombinant, soluble) (human, UniProt P01375 77-233).
T1 construct: the limits of the soluble protein used (Syngene for the ELISA); also called soluble human TNFα; human TNFα (Syngene)
Description: antigen-down ELISA, plate coated with human TNFα. As for the experimental part: (§1) Example 2a. […] Briefly, 384-well high binding plates (Greiner Bio-one #781061) were coated with 20 μL per well of 1 μg/mL of human TNFα (Syngene), 2 μg/mL of rhesus macaque TNFα (R&D Systems, Cat# 1070-RM), or 2 μg/mL of canine TNFα (R&D Systems, Cat# 1507-CT/CF) diluted in carbonate buffer pH 9.3 (0.015 M Na₂CO₃ and 0.035 M NaHCO₃) and stored at 4° C. overnight. […] The plates were incubated at 37° C. for 90 min, then washed three times in PBS/0.1% Tween. 20 μL of secondary antibody reagent goat-anti-human-kappa-AP (Southern Biotech, Cat# 2060-04) with 1:1500 dilution was added to the plate and incubated for 45 minutes at 37° C. Plates were washed 3 times as above, and 20 μL of alkaline phosphatase substrate solution diluted to 1:35 in molecular grade water was added to every well. Once the color developed (approximately 15-30 min), plates were read at 560 nm OD on a Molecular Device Spectramax plate reader and data was acquired using Softmax Pro 4.7 software. Data analysis was performed in GraphPad Prism.
A general note: In an ELISA, binding on a coated surface is turned into a signal by an enzyme label.

Test [2] has as its target TNFα expressed on human monocyte-derived dendritic cells (human, UniProt P01375 1-233). Description: cell-based or functional assay.
For the next test, the target named is T2, canine TNFα (canine, UniProt P51742 77-233).
T2 construct: Bought protein; also called Canine TNFα (R&D Systems, Cat# 1507-CT/CF)
T2 sequence (P51742 77-233 limits assumed): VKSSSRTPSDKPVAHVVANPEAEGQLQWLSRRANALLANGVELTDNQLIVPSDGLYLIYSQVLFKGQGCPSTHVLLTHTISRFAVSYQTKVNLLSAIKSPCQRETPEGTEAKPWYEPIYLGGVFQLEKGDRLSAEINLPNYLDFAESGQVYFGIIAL
The experiment in a line: antigen-down ELISA, plate coated with canine TNFα. As to the method:
as §1

Another test has as its target T3, rhesus macaque TNFα (rhesus macaque, UniProt P48094 77-233).
T3 construct: Bought protein; also called rhesus macaque monkey TNFα (R&D Systems, Cat# 1070-RM)
The experiment in a line: antigen-down ELISA, plate coated with rhesus macaque TNFα. As for the experimental part:
as §1

Test [3] deals with membrane human TNFα (non-cleavable TNFα construct stably transfected into CHO cells) (human, UniProt P01375 1-233). The experiment in a line: cell-based or functional assay.
Test [4] addresses T1, human TNFα (recombinant, soluble). The experiment in a line: cell-based or functional assay.
The target is the same in test [5]. The experiment in a line: antigen-down ELISA, plate coated with human TNFα. As to the method: as §1
The source holds these as a separate data set.

Test [6] has the same target. The experiment in a line: cell-based or functional assay. This is another data set of the same source.

The values below come from US20240082414A1 (Eli Lilly, published 2024).

Like-named read-outs stand apart in the source and are kept apart here.

Chain of TNFα expressed on human monocyte-derived dendritic cells (P01375 whole entry): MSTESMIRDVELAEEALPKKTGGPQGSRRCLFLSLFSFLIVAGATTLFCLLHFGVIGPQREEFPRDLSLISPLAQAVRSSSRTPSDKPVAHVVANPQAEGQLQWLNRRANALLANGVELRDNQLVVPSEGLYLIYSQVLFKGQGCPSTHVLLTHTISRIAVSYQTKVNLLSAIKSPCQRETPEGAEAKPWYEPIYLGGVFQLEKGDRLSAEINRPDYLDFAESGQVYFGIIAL
T3 sequence (P48094 77-233 limits assumed): as the sequence (P51742 77-233 limits assumed) above, with K2R, E21Q, S30N, I49V, D53E, T72N, F83I, T109A, N140D counted along it
T1 sequence (P01375 77-233 limits assumed): as the sequence (P51742 77-233 limits assumed) above, with K2R, E21Q, S30N, T44R, I49V, D53E, F83I, T109A, L138R, N140D counted along it

B1: anti-human TNFα antibody Ab3 (antibody, human IgG1, kappa, V domains shown)
VH: QVQLVQSGAEVKKPGASVKVSCKASGYTFTGYYMHWVRQAPGQGLEWMGWINPYTGGTKYAQKFQGRVTMTRDTSISTAYMELSRLRSDDTAVYYCARDLYGSSNYGMDVWGQGTTVTVSS
VL: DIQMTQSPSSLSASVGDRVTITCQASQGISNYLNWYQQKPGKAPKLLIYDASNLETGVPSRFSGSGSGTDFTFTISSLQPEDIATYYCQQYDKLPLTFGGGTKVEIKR
notes: Human IgG1; expressed in CHO cells
Consider B1, for which the concentration giving a half-maximal response (EC50) – broadly, the midpoint of the concentration-response curve – in test [1] amounted to 0.216 µg/mL; in the test with canine TNFα it was 0.24 µg/mL; with rhesus macaque TNFα, 0.141 µg/mL. Moreover, in test [2], the “Immature Dendritic Cell Internalization Index” value worked out at 20. Further, the “Mature Dendritic Cell Internalization Index” value in test [2] came out at 35.2. In test [3], the “Inhibition of membrane human TNFα-induced apoptosis IC50 (L929 cells)” value came to 0.15 µg/mL. Besides, the “Inhibition of soluble human TNFα induced apoptosis IC50 (L929 cells)” value in test [4] came to 0.19 µg/mL.

B2: anti-human TNFα antibody Ab1 (antibody, human IgG1, kappa, V domains shown)
VH: QVQLVQSGAEVKKPGASVKVSCKASGYTFTGYYIHWVRQAPGQGLEWMGWINPYTGGTNYAQKFQGRVTMTRDTSISTAYMELSRLRSDDTAVYYCARDLYGSSNYGGDVWGQGTTVTVSS
VL: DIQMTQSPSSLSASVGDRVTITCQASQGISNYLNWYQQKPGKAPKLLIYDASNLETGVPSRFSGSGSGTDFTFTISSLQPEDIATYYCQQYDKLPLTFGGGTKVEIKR
notes: Human IgG1 with engineered cysteines at heavy chain positions 124 and 378 (EU numbering); expressed in CHO cells; also called anti-human TNFα Ab1; unconjugated anti-human TNFα Ab1
On to B2, for which the EC50 in test [1] is 0.223 µg/mL; in the test with canine TNFα it was 0.22 µg/mL; in the test with rhesus macaque TNFα, 0.156 µg/mL; in test [5], 0.28 µg/mL. In addition, the “Immature Dendritic Cell Internalization Index” value in test [2] came to 19.4. For the same molecule, the “Mature Dendritic Cell Internalization Index” value in test [2] worked out at 26.7. Also, the “Inhibition of soluble human TNFα induced apoptosis IC50 (L929 cells)” value in test [4] came to 0.16 µg/mL; in test [6], 0.089 µg/mL.

B3: anti-human TNFα antibody Ab5 (antibody, human IgG1, kappa, V domains shown)
VH: QVQLVQSGAEVKKPGASVKVSCKASGYTFTGYYMHWVRQAPGQGLEWMGWINPYTGGTKYAQKFQGRVTMTRDTSISTAYMELSRLRSDDTAVYYCARDLYGSSNYGMDVWGQGTTVTVSS
VL: DIQMTQSPSSLSASVGDRVTITCQASQGIRNYLNWYQQKPGKAPKLLIYDASNLETGVPSRFSGSGSGTDFTFTISSLQPEDIATYYCQQYDKLPLTFGGGTKVEIKR
notes: as for B1
For the molecule B3, the figures for the EC50 (in test [1]; with canine TNFα; in the test with rhesus macaque TNFα) were 0.22 µg/mL, 0.176 µg/mL and 0.161 µg/mL, respectively. Moreover, the “Immature Dendritic Cell Internalization Index” value in test [2] was found to be 54.6. Moreover, the “Mature Dendritic Cell Internalization Index” value in test [2] was found to be 52.7. The “Inhibition of membrane human TNFα-induced apoptosis IC50 (L929 cells)” value in test [3] is 0.2 µg/mL. Moreover, in test [4], the “Inhibition of soluble human TNFα induced apoptosis IC50 (L929 cells)” value was determined as 0.22 µg/mL.

B4: anti-human TNFα antibody Ab6 (antibody, human IgG1, kappa, V domains shown)
VH: QVQLVQSGAEVKKPGASVKVSCKASGYTFTGYYIHWVRQAPGQGLEWMGWINPYTGGTNYAQKFQGRVTMTRDTSISTAYMELSRLRSDDTAVYYCARDIYGSSNYGGDVWGQGTTVTVSS
VL: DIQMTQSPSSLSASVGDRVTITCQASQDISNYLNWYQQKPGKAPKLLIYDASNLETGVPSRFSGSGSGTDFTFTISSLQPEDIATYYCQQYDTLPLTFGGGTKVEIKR
notes: Human IgG1
For the molecule B4, the EC50 worked out at 0.131 µg/mL in test [1], 0.162 µg/mL with canine TNFα and 0.115 µg/mL with rhesus macaque TNFα.

B5: anti-human TNFα antibody Ab2 (antibody, human IgG1, kappa, V domains shown)
VH: QVQLVQSGAEVKKPGASVKVSCKASGYTFTGYYIHWVRQAPGQGLEWMGWINPYTGGTNYAQKFQGRVTMTRDTSISTAYMELSRLRSDDTAVYYCARDLYGSSNYGMDVWGQGTTVTVSS
VL: not shown
notes: as for B1
In the case of B5, the EC50 in test [1] was 0.222 µg/mL; with canine TNFα, 0.24 µg/mL; with rhesus macaque TNFα, 0.162 µg/mL. Moreover, the “Immature Dendritic Cell Internalization Index” value in test [2] came to 21.9. In test [2], the “Mature Dendritic Cell Internalization Index” value worked out at 38.3. Also, in test [3], the “Inhibition of membrane human TNFα-induced apoptosis IC50 (L929 cells)” value was determined as 0.13 µg/mL. Besides, the “Inhibition of soluble human TNFα induced apoptosis IC50 (L929 cells)” value in test [4] was found to be 0.13 µg/mL.

B6: anti-human TNFα antibody Ab4 (antibody, human IgG1, kappa, V domains shown)
VH: QVQLVQSGAEVKKPGASVKVSCKASGYTFTGYYMHWVRQAPGQGLEWMGWINPYTGGTKYAQKFQGRVTMTRDTSISTAYMELSRLRSDDTAVYYCARDLYGSSNYGMDVWGQGTTVTVSS
VL: not shown
notes: as for B1
As for B6, the EC50 came to 0.213 µg/mL in test [1], 0.231 µg/mL in the test with canine TNFα and 0.144 µg/mL with rhesus macaque TNFα. The “Immature Dendritic Cell Internalization Index” value in test [2] worked out at 33.6. Further, the “Mature Dendritic Cell Internalization Index” value in test [2] stood at 43.1. Moreover, the “Inhibition of membrane human TNFα-induced apoptosis IC50 (L929 cells)” value in test [3] is 0.13 µg/mL. Further, the “Inhibition of soluble human TNFα induced apoptosis IC50 (L929 cells)” value in test [4] was determined as 0.19 µg/mL.
